Reference: patent US20170058005A1 (priority 2014, published 2017)
Entries after “also recorded” stand apart in the source; their conditions may differ.

Tests used:
DRB1*0401 (DR4) = DRB1*0401 (DR4) (Homo sapiens, UniProt P01903+P01911, A100K/A169T/F76Y/I96L/K127E/L162R/M171V/N62H/P40V/Q125Y/R42H/S133A/S149N/S66Y/V115G/V209L/W38E); assay type: binding
DRB1*1501 (DR15) = DRB1*1501 (DR15) (Homo sapiens, UniProt P01903+P01911); assay type: binding
[1] = system: CD4^+ T cells of HLA class II transgenic mice; assay type: cell-based
DRB1*1101 (DR11) = DRB1*1101 (DR11) (Homo sapiens, UniProt P01903+P01911, A100R/A169T/A87E/I96F/K41T/L162R/M171V/P40S/Q125H/Q178H/Q39Y/Q99D/R42S/S66Y/T262R/V115G/W38E); assay type: binding
DRB1*0101 (DR1) = DRB1*0101 (DR1) (Homo sapiens, UniProt P01903+P01911, A100R/D57E/F55L/F60I/F76Y/I96L/L162R/M171V/P40L/Q125E/R42F/V115G/Y59C); assay type: binding
DRB1*1301 (DR13) = DRB1*1301 (DR13) (Homo sapiens, UniProt P01903+P01911, A100E/A169T/K41T/L162R/M171V/P40S/Q125H/Q178H/Q39Y/Q99D/R42S/S66N/T262R/W38E/Y61H); assay type: binding
DRB1*0701 (DR7) = DRB1*0701 (DR7) (Homo sapiens, UniProt P01903+P01911, A100R/A102G/A103Q/D57E/D86V/E43K/F76Y/K127E/L162R/M171V/P40G/Q125H/Q99D/R33Q/R42Y/R54Q/S133A/S66F/T210M/V115G/Y107V/Y59L/Y89S); assay type: binding
HLA-DR molecules = assay type: binding, human
DRB1*0301 (DR3) = DRB1*0301 (DR3) (Homo sapiens, UniProt P01903+P01911, A100K/A102G/A103R/A169T/F55Y/I96L/K41T/L162R/M171V/P40S/Q125H/Q178H/Q39Y/R42S/S66N/T106N/T262R/W38E/Y61H); assay type: binding

Sequence	Relative binding affinity of peptide to HLA-DR molecules, DR4 (DRB1*0401 (DR4))	Relative binding affinity of peptide to HLA-DR molecules, DR15 (DRB1*1501 (DR15))	CD4 T cell response in LF immunized HLA transgenics [1]	HLA-restriction based on CD4 T cell response class II HLA transgenics after priming with LF [1]	Relative binding affinity of peptide to HLA-DR molecules, DR11 (DRB1*1101 (DR11))	Relative binding affinity of peptide to HLA-DR molecules, DR1 (DRB1*0101 (DR1))	Relative binding affinity of peptide to HLA-DR molecules, DR13 (DRB1*1301 (DR13))	Relative binding affinity of peptide to HLA-DR molecules, DR7 (DRB1*0701 (DR7))	Binding across all HLA-DR alleles assayed (HLA-DR molecules)	Relative binding affinity of peptide to HLA-DR molecules, DR3 (DRB1*0301 (DR3))	Strong relative binding affinity of peptide to HLA-DR molecules, DR15 (DRB1*1501 (DR15))	Strong relative binding affinity of peptide to HLA-DR molecules, DR13 (DRB1*1301 (DR13))	Strong relative binding affinity of peptide to HLA-DR molecules, DR7 (DRB1*0701 (DR7))	Strong relative binding affinity of peptide to HLA-DR molecules, DR3 (DRB1*0301 (DR3))
EQYTHQDEIYEQVHSKGLYV	237	13	immunodominant epitope in both HLA-DR1 and HLA-DR15 transgenics	DRI	35	1	15	0	strong to moderate binding across all seven HLA-DR alleles	245	–	–	–	–
QNSNEVQEVFAKAFAYYIEP	137	1	–	DR1	2	0.1	327	0.4	strong to moderate binding across all seven HLA-DR alleles	173	–	–	–	–
NKALGLPKYTKLITFNVHNR	10	3	–	DR1	2	0	19	4	strong to moderate binding across all seven HLA-DR alleles	250	–	–	–	–
HQSIGSTLYNKIYLYENMNI	55	0.02	recognised by all LF immunized HLA transgenics; also recorded: immunogenic in all three HLA-DR transgenic strains	DR1, DR4, DR15,; also recorded: DQ8, DQ6	44	115	5	3	strong to moderate binding across all seven HLA-DR alleles	1	+ (key: +: Strong binding affinity was defined in this study as a relative activity <10)	+ (key: +: Strong binding affinity was defined in this study as a relative activity <10)	+ (key: +: Strong binding affinity was defined in this study as a relative activity <10)	+ (key: +: Strong binding affinity was defined in this study as a relative activity <10)
